According to patent publication US20220144956A1 (Xencor, published 2022):

Biological target: T1, human CD5 on human PBMCs / T cells (human, UniProt P06127 25-495)
T1 construct: whole, on cells
T1 sequence (looked up): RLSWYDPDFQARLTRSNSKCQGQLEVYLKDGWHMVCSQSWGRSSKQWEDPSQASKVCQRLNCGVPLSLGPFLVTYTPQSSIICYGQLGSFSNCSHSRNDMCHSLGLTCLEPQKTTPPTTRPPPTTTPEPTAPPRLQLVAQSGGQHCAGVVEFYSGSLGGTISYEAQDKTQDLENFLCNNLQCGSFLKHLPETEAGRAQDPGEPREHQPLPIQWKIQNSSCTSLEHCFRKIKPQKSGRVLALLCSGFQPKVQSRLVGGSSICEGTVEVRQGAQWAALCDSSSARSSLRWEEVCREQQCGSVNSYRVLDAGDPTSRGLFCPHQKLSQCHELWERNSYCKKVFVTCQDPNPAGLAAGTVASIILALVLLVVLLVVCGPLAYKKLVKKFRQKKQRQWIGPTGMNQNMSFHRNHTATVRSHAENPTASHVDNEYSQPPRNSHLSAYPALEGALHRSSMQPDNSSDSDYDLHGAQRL
Assay: cell binding on unstimulated human PBMCs (FIG. 67)

B1: XENP35401 (antibody, human IgG1, kappa, V domains shown)
VH: EVQLVESGGGVVQPGRSLRLSCTFSGFSLSTSGMGVGWIRQAPGKGLEWVAHIWWDDDVYYNPSLKSRLTITKDASTDTVYMELSSLRSEDTAVYYCVRRRATGTGFDYWGQGTLVTVSS
VL: NIVMTQSPSSLSASVGDRVTITCQASQDVGTAVAWYQQKPDQSPKLLIYWTSTRHTGVPDRFTGSGSGTDFTLTISSLQPEDIATYFCHQYNSYNTFGSGTKLEIKR
notes: IgG1 backbone with E233P/L234V/L235A/G236del/S267K ablation variant; also called bivalent anti-CD5 mAb based on clone 5D7; 5D7; copies: 2 + 2
B1: binds.
